Source: doi:10.1101/2025.08.13.670075

Target: proteasome with HTBH-tagged 20S subunit PSMB2 (human (expressed in HEK293) | human (endogenous in HEK293T)) (UniProt P49721)
Test: affinity purification with mass spectrometry

UniProt P49721, sequence (P49721 whole entry, looked up, tested part not stated): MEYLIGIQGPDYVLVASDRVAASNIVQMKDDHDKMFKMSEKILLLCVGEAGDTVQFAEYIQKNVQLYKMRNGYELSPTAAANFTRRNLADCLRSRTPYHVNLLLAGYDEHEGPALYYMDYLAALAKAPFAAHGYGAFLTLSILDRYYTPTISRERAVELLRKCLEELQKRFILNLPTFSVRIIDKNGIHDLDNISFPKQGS

B1: USP15 (endogenous, HEK293T or HeLa cells) (enzyme)
chain: MAEGGAADLDTQRSDIATLLKTSLRKGDTWYLVDSRWFKQWKKYVGFDSWDKYQMGDQNVYPGPIDNSGLLKDGDAQSLKEHLIDELDYILLPTEGWNKLVSWYTLMEGQEPIARKVVEQGMFVKHCKVEVYLTELKLCENGNMNNVVTRRFSKADTIDTIEKEIRKIFSIPDEKETRLWNKYMSNTFEPLNKPDSTIQDAGLYQGQVLVIEQKNEDGTWPRGPSTPKSPGASNFSTLPKISPSSLSNNYNNMNNRNVKNSNYCLPSYTAYKNYDYSEPGRNNEQPGLCGLSNLGNTCFMNSAIQCLSNTPPLTEYFLNDKYQEELNFDNPLGMRGEIAKSYAELIKQMWSGKFSYVTPRAFKTQVGRFAPQFSGYQQQDCQELLAFLLDGLHEDLNRIRKKPYIQLKDADGRPDKVVAEEAWENHLKRNDSIIVDIFHGLFKSTLVCPECAKISVTFDPFCYLTLPLPMKKERTLEVYLVRMDPLTKPMQYKVVVPKIGNILDLCTALSALSGIPADKMIVTDIYNHRFHRIFAMDENLSSIMERDDIYVFEININRTEDTEHVIIPVCLREKFRHSSYTHHTGSSLFGQPFLMAVPRNNTEDKLYNLLLLRMCRYVKISTETEETEGSLHCCKDQNINGNGPNGIHEEGSPSEMETDEPDDESSQDQELPSENENSQSEDSVGGDNDSENGLCTEDTCKGQLTGHKKRLFTFQFNNLGNTDINYIKDDTRHIRFDDRQLRLDERSFLALDWDPDLKKRYFDENAAEDFEKHESVEYKPPKKPFVKLKDCIELFTTKEKLGAEDPWYCPNCKEHQQATKKLDLWSLPPVLVVHLKRFSYSRYMRDKLDTLVDFPINDLDMSEFLINPNAGPCRYNLIAVSNHYGGMGGGHYTAFAKNKDDGKWYYFDDSSVSTASEDQIVSKAAYVLFYQRQDTFSGTGFFPLDRETKGASAATGIPLESDEDSNDNDNDIENENCMHTN
fold change of USP15 content on proteasomes, MG132-treated over untreated cells: > 4 fold
